Data: patent US20100323375

Assays:
[1] = system: T1, FLAG-Alcgamma
T1 sequence 1: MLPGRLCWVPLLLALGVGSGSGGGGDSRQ
T1 sequence 2: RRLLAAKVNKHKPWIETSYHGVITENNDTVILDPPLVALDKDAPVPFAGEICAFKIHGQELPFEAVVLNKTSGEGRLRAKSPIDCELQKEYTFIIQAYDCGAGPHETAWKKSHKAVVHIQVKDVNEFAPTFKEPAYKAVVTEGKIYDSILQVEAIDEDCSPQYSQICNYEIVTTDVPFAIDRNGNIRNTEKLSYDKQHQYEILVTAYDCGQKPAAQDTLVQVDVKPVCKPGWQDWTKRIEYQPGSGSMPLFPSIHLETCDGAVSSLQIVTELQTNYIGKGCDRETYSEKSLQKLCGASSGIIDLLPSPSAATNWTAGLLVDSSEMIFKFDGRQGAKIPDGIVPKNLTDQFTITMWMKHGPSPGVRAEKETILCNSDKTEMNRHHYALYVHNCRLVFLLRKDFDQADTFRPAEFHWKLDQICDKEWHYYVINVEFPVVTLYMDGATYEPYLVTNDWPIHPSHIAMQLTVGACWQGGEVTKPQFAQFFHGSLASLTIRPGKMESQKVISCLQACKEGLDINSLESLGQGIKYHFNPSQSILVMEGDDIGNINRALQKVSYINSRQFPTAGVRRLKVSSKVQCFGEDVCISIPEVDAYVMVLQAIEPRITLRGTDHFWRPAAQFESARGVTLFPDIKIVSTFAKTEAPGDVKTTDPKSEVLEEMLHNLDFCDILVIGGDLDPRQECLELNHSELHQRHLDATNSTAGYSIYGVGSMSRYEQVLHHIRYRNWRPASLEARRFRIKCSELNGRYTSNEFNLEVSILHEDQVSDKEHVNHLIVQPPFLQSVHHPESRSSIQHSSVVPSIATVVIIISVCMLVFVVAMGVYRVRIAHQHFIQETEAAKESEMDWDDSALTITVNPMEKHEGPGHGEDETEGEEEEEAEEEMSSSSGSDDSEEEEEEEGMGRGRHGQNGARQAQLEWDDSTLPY

[2] = system: T2, FLAG-Alcalpha
T2 sequence 1: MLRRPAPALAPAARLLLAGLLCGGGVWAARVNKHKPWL
T2 sequence 2: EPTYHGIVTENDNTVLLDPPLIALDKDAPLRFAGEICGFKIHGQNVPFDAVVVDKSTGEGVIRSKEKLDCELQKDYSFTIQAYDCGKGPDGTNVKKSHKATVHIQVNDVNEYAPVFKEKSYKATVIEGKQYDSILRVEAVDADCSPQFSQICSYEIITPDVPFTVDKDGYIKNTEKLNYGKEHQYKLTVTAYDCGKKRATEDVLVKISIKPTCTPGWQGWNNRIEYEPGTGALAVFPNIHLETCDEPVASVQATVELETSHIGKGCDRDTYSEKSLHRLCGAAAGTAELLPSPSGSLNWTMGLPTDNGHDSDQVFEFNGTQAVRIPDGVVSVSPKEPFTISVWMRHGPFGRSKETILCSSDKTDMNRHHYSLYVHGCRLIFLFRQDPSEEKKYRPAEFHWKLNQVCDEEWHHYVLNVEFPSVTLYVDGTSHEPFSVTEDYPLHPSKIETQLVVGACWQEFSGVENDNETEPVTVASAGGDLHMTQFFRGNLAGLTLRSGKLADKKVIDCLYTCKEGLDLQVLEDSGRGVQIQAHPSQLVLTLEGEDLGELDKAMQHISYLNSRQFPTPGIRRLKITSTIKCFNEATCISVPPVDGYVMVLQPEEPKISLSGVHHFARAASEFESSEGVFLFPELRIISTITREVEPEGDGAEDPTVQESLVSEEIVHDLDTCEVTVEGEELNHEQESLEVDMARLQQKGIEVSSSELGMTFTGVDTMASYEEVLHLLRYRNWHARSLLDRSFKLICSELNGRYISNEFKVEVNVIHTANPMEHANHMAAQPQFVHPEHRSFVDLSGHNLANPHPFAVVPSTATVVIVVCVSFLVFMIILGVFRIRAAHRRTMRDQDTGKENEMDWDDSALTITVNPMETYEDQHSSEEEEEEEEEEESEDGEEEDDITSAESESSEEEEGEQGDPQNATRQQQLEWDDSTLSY

[3] = system: T3, FLAG-Alcbeta
T3 sequence 1: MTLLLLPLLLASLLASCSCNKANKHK
T3 sequence 2: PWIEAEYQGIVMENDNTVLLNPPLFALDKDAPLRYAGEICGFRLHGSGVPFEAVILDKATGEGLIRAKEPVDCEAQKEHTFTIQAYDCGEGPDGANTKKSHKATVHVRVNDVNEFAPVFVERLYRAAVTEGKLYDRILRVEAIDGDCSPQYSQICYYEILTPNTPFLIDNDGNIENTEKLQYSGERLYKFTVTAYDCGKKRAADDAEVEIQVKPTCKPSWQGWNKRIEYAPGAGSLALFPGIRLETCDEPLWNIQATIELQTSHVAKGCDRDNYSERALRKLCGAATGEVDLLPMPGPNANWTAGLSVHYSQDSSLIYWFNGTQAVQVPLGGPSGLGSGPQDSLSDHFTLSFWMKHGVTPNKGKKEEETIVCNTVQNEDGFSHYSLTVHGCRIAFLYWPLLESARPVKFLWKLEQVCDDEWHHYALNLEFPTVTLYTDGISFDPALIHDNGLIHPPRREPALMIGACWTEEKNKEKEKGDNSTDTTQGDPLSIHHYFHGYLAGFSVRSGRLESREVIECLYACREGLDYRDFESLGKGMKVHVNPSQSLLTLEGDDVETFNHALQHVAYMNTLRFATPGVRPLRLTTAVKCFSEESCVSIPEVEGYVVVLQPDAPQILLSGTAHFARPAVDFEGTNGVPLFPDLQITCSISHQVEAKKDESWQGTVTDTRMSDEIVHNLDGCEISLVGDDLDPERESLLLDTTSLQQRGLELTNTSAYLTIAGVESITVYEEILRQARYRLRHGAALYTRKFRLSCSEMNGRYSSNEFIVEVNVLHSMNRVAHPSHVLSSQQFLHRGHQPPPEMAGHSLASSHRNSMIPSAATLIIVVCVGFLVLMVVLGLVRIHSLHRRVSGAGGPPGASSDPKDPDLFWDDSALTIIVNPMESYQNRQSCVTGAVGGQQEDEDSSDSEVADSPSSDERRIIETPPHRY

[4] = target: FLAG-APP (UniProt P05067)
FLAG-APP, sequence (P05067 whole entry, looked up): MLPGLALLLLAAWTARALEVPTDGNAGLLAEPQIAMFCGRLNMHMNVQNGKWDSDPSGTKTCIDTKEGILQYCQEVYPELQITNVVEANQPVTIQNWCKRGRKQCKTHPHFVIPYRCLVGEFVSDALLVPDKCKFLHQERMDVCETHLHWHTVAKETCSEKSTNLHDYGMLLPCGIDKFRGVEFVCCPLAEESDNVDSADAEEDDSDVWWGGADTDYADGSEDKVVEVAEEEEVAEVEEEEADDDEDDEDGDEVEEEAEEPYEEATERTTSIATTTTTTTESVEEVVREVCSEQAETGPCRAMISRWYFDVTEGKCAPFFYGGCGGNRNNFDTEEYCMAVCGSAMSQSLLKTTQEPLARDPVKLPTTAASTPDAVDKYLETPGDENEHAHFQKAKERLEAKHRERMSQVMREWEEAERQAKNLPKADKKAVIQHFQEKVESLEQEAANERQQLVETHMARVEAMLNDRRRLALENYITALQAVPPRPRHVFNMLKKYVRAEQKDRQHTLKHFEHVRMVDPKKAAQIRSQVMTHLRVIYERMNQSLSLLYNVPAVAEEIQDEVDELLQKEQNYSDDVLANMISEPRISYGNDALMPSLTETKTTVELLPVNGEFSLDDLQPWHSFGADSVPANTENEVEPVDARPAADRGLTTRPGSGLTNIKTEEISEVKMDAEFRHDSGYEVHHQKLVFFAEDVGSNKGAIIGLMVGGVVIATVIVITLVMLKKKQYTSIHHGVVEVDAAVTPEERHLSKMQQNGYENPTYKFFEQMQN

ADAM10-HA, sequence (O14672 whole entry): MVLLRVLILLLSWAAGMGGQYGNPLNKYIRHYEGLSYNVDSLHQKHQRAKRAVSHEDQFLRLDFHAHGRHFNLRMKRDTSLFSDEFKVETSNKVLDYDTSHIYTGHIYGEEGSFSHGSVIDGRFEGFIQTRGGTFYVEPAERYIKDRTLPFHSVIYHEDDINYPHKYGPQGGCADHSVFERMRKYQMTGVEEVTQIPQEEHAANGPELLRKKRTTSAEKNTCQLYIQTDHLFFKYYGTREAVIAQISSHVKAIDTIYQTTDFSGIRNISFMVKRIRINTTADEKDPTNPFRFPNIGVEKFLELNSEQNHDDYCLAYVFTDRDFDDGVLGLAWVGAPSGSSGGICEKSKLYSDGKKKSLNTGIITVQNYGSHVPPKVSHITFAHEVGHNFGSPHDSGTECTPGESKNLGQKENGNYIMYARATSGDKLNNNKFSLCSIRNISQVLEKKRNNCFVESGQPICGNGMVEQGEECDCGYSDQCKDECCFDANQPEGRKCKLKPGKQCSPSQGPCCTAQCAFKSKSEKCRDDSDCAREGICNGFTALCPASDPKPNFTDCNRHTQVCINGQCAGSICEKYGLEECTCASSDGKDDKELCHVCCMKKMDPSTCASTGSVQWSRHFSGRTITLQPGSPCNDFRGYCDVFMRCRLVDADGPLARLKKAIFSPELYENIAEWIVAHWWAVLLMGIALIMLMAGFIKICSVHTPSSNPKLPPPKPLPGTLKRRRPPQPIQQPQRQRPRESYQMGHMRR

For ADAM10-HA, the “amount of sAlcgamma secreted by ADAM (-/-) MEFs with exogenous ADAM10” value [1] was “The amounts of sAlcalpha, sAlcbeta, and sAlcgamma secreted by ADAM (-/-) MEFs were restored in response to the expression of exogenous ADAM10”, the “amount of sAlcalpha secreted by ADAM (-/-) MEFs with exogenous ADAM10” value [2] was “The amounts of sAlcalpha, sAlcbeta, and sAlcgamma secreted by ADAM (-/-) MEFs were restored in response to the expression of exogenous ADAM10” and the “amount of sAlcbeta secreted by ADAM (-/-) MEFs with exogenous ADAM10” value [3] was “The amounts of sAlcalpha, sAlcbeta, and sAlcgamma secreted by ADAM (-/-) MEFs were restored in response to the expression of exogenous ADAM10”. For the same substance, the “amount of sAPP secreted by ADAM (-/-) MEFs with exogenous ADAM10 against without” value [4] was “about 1.7 fold over that of sAPP secreted by ADAM (-/-) MEFs”.
